test: soluble on expression in E. coli; label from the status in PepcDB or PDB records

Sequence | soluble on expression in E. coli
GNNFNWTSVLNMTHNKNKIVSLDGKLDQSIEGSWFIHKVGLPYSTFYVKEYAGVDPQTGKALYYMNTQDANGNYDRTVTTDASAAQAIPYKSVDPKISGGFTNIVNYKWFDLALTLTYSLGGYSFDKTGTYNETDGAKEQNYNLPIYELDRWQKPGDVTDVPRFVLGQAAGPQNSSRYVHSTDHLRVKNLTLGFTLPDQWLTKLGVSKARLYFSGSNLLTWAKWDQYDPEVPVSGEVFCETPPMRTYSFGIEVSF | not soluble
AVSLDRTRAVFDGSEKSMTLDISNDNKQLPYLAQAWIENENQEKIITGPVIATPPVQRLEPGAKSMVRLSTTPDISKLPQDRESLFYFNLREIPPRSEKANVLQIALQTKIKLFYRPAAIKTRPNEVWQDQLILNKVSGGYRIENPTPYYVTVIGLGGSEKQAEEGEFETVMLSPRSEQTVKSANYNTPYLSYINDYGGRPVLSFICNGSRCSVKKEKHHHHHH | soluble
MLDKTRLRIAMQKSGRLSDESQELLSRCGIKINLQQQRLIAFAENMPIDILRVRDDDIPGLVMDGVVDLGIIGENVLEEELLNRRAQGDDPRYFTLRRLDFGGCRLSLAAPLDAEYTGPQCLQDTRIATSYPHILKQYLDKQGVRFKSCLLNGSVEVAPRAGLADAICDLVSTGATLEANGLREVEVIYRSKACLIQRDGEMSVDKQQLIDRLMTRIQGVIQARESKYIMMHAPSERLDEIITLLPGAERPTILPLAGDKSRVAMHMVSSETLFWETMEKLKALGASSILVLPIEKMME | not soluble
MGSDKIHHHHHHMTKFIVDSSYWNLFPTSKIGVILIKDYHMDRNLETELKQLLSDSHSLAKKYLQEKEFSQNRVIQTYRKAYQTFKTKKGARSSIEALLKRVNSGNEITSINPLVDIYNAASLRFGLPIGAEDSDTFRGDLKLTITNGGDEFYLIGEDFNRPTLSGELAYVDDVGAVCRCFNWRDGKRTMITDNTQNAFLVIELIDNGREIIFKEALDFIATNTNRFLKAKTQTIILDKEHSEITL | not soluble
MTDLSRSQFGFRKARSTVDVVNIVVKVAAQAIEGIMVTLDIRNVFNTARWDRIIKALIGFGELAYLVRIIRSYFSKRVLLCESSEGVFSPQVTGGVPKGSVLGQLLWNAMKTGYFAYHWLRGTNRRLRGRRGFARCLEHHHHHH | not soluble
MSLAEQKPGEGQKTAIKIGVMIDLSGPLTTYGNSIKNTLEIAKEDINAYLEEKGLPYTVEFYVEDTKVDPKIALEKIQSLHSKGINLVIGPMGSGEVSNIKGYVQSNKIIIISPSSTLLPSLLGITKPEDKKYIFRFVGTDDLQTDAITAELKDLGIKAVIITYTGNDWGKGLYETIKPKLDAAGIEIVGEPVEYPSPPPADFSPYIATLESKLNDALQKYDASEVAVVAFSYEEAATMLAQTKDDSPLLNVLWLGCDGTALSDKMLEVCDKASKVRMLSTLFESKGEAYEQLAKKYKERGFGDSPYQYALNAYDAAWVLVLSYIEVVKEKGSYDPDAMNAKIPEVTEKYSKGEYGVKPVSGYIKLNEWNDRASGDYAIYEVTQDCKWQTAGIWKFTENKIEWLEGHHHHHH | soluble
GPGSMGEGRIRCYYEVLEVERKATYDEIRTAYKKKSLQYHPDKNYGNQEEAAMRFKEVQNAYSILSDADERAWYDSHREAILRGGDGTGDLDELNLYEYFTAGCFDGFDDGESGFYTVYRKVFDILIEEESDYDSRAKLWPGFGTSTSDWADVQKFYGYWRNFSTYKTFTWKDEYKVNEMEDRYSRRMAGRINSKARDGAKKEYVRTVQSLAQFVYRRDPRVKAELERQEKEDQAKREERERQEIERLKRRREANERVWAEAAEREAREEAERAARGEAMDGSILEMLYEKERQTKEMMRGSGGVGAHTAGFAMLGGDDDEAVTVFNCPACKKQFKSENQYKEHVRSNKHKTKLKQLAAKGTDVAALMGEKVEGGSGGTEE | soluble
MGSDKIHHHHHHMSHEVDPRVDKTRRRLRQALITLLQTETVDNISVQKLTSTAAVTRGTFYLHYKDKPAFVDQALDDLVSELFETAIVTVSVGDIMTNPADPLQRVHVFSLSKALSYISQHAEAFETLLLDQRQLAVNQRINQQMTTWMTKFHRDFQDQFADLEVPVSIQIAYYVSATVGLITDWLANDMIYTPHYLTKCIKKMHHLMTVGSISFTDFFVK | not soluble
MAKQPTVLWAQRESLVYLTIEVDEAKIEELKGEGNKLHFQGSSKTDKYEATLEFFDEIDPASVKHTGSSTRVVEITVQKKTPAWWPRLLQNKGKVHWLKVDFGKWKDEDEDDEAEDAGAGIGGGMANGFDLNQYMSQMGGAGGADFGGLEDDEEDDDMPDLEDNEEEEGKNGTRA | not soluble
MGSDKIHHHHHHVSVPTQHHLSAERLDQSAQFARITSTVEAPVLSLWLPDPQQAVPSACGRAVAGHDGPSEGAGGQRQGGESGQLCRAHLRLQPGPVLAGEAEAPPTRPQFLLVVATHLQRSFTREVKLHGRCPRRVRRPFHLITQIDNQVRGCRPDLTQHRREREGVPVHVADDCHSHPSSLAQTGAAPPANMRPMSILPDWRIRELAQAGMIEPFEDRLIRTAENGHVISYGLSSFGYDLRCADEWKVFTNVHGALVDPKNFDERSFVDLQANAIIIPPNSFVLARSLEYLRIPENVMVVALGKSTYARCGIVANVTPLEPGWEGHVTLEFSNTTPLPAKMYAFEGCVQLLFFEGERPAVTYRDRGGKYQKQRGVTLPRL | not soluble
MSLYKLIALDMDGTLLNSQKQISPRTKQAIAQARQQGIQVVLASGRPLDGMRSKLEELHLTTENDYVLYYNGSMVANVGTGEIIHQQIIDGKAAKRVATLAQEFGLNTHAFSQIHGLITPKTSQYTEVEASINGLNITEMDFAQLADDHPIIKAMIVGEPEKLTQAIAQLPAQWREEFTVVQSAPFFLEFLNTGSNKGIGVQAIAAHLGIQASEVICMGDAENDHHMLQYAGLGIAMANAMEETKHIADHITLSNDHDGVAVAIERFALGCFSEGHHHHHH | soluble
MTYCHQFLSNLSSLTRFRLHTGNVNGYTQLKVRRFETSAEELAACLDLQLSSNPIADDFKENSCLLLCDNDHIDNYERDEIKITMKVFLSAWDVQQIDQAVTSLKEQLKTKDIEVLILSFPELDLIDGESEEDENNRWFEKVKPLYTYMEKLVETSEIASIGVSDFSARQLKTIIDHFDVKPSINHVRLDGCCQVPPELQALANDNDVQLLVHNDPTPFPTNNIFKTFCEIDSGSQKAVCSPLFETTWLSRYSVWVRKRSIMTSKGYIVQFFRKHD | not soluble
VSQLLPSDFNLRYPANSTSIVPISDLSITQIEADPNDSTIAVLTIQVIIRVNSFNNSLNFGIATYTQKIPGFLNQDSGRIALGFRDLALNANDLIIFNGIKGDTGVDAAIQSGKDNFTINSPIGFENIIFSIQDFDSTSTNASRGELGFVIKGEFNGQILLSSTINQKIVVSEFLAENLAILNAATEFGVILKPEFNLNSNRPTASQASKDNFSINFSQAPDPR | soluble
MKKDILEKGAILQRDRETYAIAPHIPGGITDTATLRKLCDVADKYGVKELKLTSAQRIALFGVKEEDLDAIWSDLDQQPGAAIGLCVRSVKICPGTTWCKRGVQDSVSLGLKIDAIYHAMELPNKMKMGISGCMLNCAETMLKDVGVVGTPKGWRIYVGGNAGARPRIGDLLVELGPDEDKVLAVIADLVEWYRSSGSEQRLGRVVEQMGFDAFKTAVLGAKATP | not soluble
MPMPSEKTLVIIPTYNELENLPLITGRVRKANPNVDILIVDDNSPDGTGEAADALAASDSHIKVLHREGKGGLCGAYVAGFQWGLERDYTVLCEMDADGSHAPEQLHLLLAQVDNGADLVIGSRYVPGGKVVNWPKNRWVLSKGGNIYISLALGAGLSDMTAGYRAFRREVLETVDLNELSNAGYIFQVDMAWRVIQLGFDVREVPITFTEREIGESKLDGSFVKDSLLEVTKWGIHHRKEQITNLYTESSRLIRHEISSFRKKHLI | not soluble
MAHHHHHHMLPGDVVEVLVTNSHGTQDADDVERLCKALHLDPCAWCELHRSPFVPEDNFPPWLPLQKPLTLGQLLSAYVDISSSSYLLHQSFFESLFRIYSDSKPSSASSTSTTPSPDPEKVRLLEACASSETGPQLLRLLSKSSTPLCYPSLVDVLEVFSFVNIPLDRLLEVSGPLQTRRYSLANWIPATLPLSPLQLCMREVCARRSANLPAATPVGADAQRVADMLNRAAQDASRDHGNFFFGHTSHPLCCAARSMTRSAAGAGQRGMYVSFSLFGNSLFARQLQAGCTALCNPAQAKSLCSPLFLIGCGTGIAPLIAAVTQLMLRRACTAAGSAPFPCWVFYGARTKAELLYDEVLREALRTGAIAKYEYALSREEDNEKQGRYVTDLVKQNRLMVTDSLRNEGQLFVCGPAKALVSVRQLVKCDLLAEPDDDDSVQEQRLLVLEDRGRLNFDIWSTGNIFE | not soluble
MELSSLTAVSPVDGRYGDKVSALRGIFSEYGLLKFRVQVEVRWLQKLAAHAAIKEVPAFAADAIGYLDAIVANFSEEDAARIKTIERTTNHDVKAVEYFLKEKVAEIPELHAVSEFIHFACTSEDINNLSHALMLKTARDEVILPYWRQLIDGIKDLAVQYRDIPLLSRTHGQPATPSTIGKEMANVAYRMERQHRQLNQVEILGKINGAVGNYNAHIAAYPEVDWHQFSEEFVTSLGIQWNPYTTQIEPHDYIAELFDCVARFNTILIDFDRDVWGYIALNHFKQKTIAGEIGSSTMPHKVNPIDFENSEGNLGLSNAVLQHLASKLPVSRWQRDLTDSTVLRNLGVGIGYALIAYQSTLKGVSKLEVNRDHLLDELDHNWEVLAEPIQTVMRRYGIEKPYEKLKELTRGKRVDAEGMKQFIDGLALPEEEKARLKAMTPANYIGRAITMVDELK | not soluble
MADNGNEEDRNGYIINRTRFAADFHNRNEDLSEWEEMRGIEWDLILHSDGGQLYTQLVTRSRLQYEIPCKFLLEAQYGQVKVGENFDVTVSSRNHTFGMRIDQPADNGAIKITAYIDF | not soluble
MDNHNKYSVRCQCGAVEVQLNNNPVVHAFCHCSDCRDLLNIPFHAVTAWNKNDAVIVKGEEELSIYKHPSLEMTRCFCKHCGETVFNTNVMDWRVISQLLISKCNNNEIPENLRSDKHFFYEQRVVDIQDELPKFSRGTDGPLYEDQH | not soluble
MEAVVVEREAKGMKEIAIQEKDLTLQWRGNTGKLVKVRLKNTRAMEMWYNKQITEENIQEITTLNIIKNGKSLALEVYPEKSIYVKPNLGRINVPVFFIKTPINRGVFEEIFGETLKA | soluble
MAHHHHHHMKINNNEKSYILYQCLKLLIRLHDAGLSHLDLTPENILISDNYEMRLCDLSKSTPIYTYNLRHIKDVNRLYLFESCEPTIAKGAYMPPECWKIYWKYDTMKIKNPLKDLKNITDQEKRKQFYFDVSSADKFMLGVFFFWIWTNGNLWKCSDPLQDEDFFYFVKCDMNFDKFELTRKWPTDLKNIIKVGGAEQRRSG | not soluble
